Source: publication PMC6367419 (Nature Communications, 2019)

B1: EscO^1–125 (full-length EPEC central stalk protein EscO) (natural protein)
chain: MLDRILSIRKSRANRLRESMAKINSQIKEVDGKLDDCEQAIKESIASKQAYCASLVNLDKVSLYKYQIKNNAFDEQKQRLYEKKSSLSKEKRSLLDSQKRTKEDLQHVNKSIEKLSFAIKEHYFD
notes: source: E. coli BL21 (λDE3), purified (HisTrap HP, thrombin cleavage, second HisTrap HP, desalting)
B2: EscN^29–446 (EPEC type III secretion system ATPase EscN, residues 29–446) (enzyme)
chain: NSSTRYEGKIINIGGTIIKARLPKARIGAFYKIEPSQRLAEVIAIDEDEVFLLPFEHVSGMYCGQWLSYQGDEFKIRVGDALLGRLIDGIGRPMESNIVAPYLPFERSLYAEPPDPLLRQVIDQPFILGVRAIDGLLTCGIGQRIGIFAGSGVGKSTLLGMICNGASADIIVLALIGERGREVNEFLALLPQSTLSKCVLVVTTSDRPALERMKAAFTATTIAEYFRDQGKNVLLMMDSVTRYARAARDVGLASGEPDVRGGFPPSVFSSLPKLLERAGPAPKGSITAIYTVLLESDNVNDPIGDEVRSILDGHIVLTRELAEENHFPAIDIGLSASRVMHNVVTSEHLRAAAECKKLIATYKNVELLIRIGEYTMGQDPEADKAIKNRKLIQNFIQQSTKDISSYEKTIESLFKVVA
notes: also called T3SS ATPase; chains NA to NF; source: E. coli BL21 (λDE3), purified (HisTrap HP, thrombin cleavage, second HisTrap HP, desalting)

Assays:
[1] = biological target: T1, EscN-EscO complex (EscN^29–446 with EscO^1–125) (Escherichia coli, UniProt B7UMA6); assay: cryo-EM structure, […] Å; assay type: binding; design: EscN residues 29-446 plus full-length EscO (125 residues); N-terminal 6His tags cleaved with thrombin (tag residue 0 left on EscO); E. coli BL21(DE3); 6:1 complex; with Type III secretion system central stalk protein EscO; conditions: bound as transition state analogue Mg2+ADP-AlF3; pH 7.5; catalytic inter-subunit sites (four of six)
[2] = biological target: T1, EscN-EscO complex (EscN^29–446 with EscO^1–125); conditions: 3 mM ATP, 500 nM EscN, EscO 1:1 molar, 37 °C; pre-incubated with Mg2+ADP-AlF3, diluted out before assay
[3] = biological target: EscN^29–446 (EPEC type III secretion system ATPase EscN, residues 29–446) (enteropathogenic Escherichia coli (EPEC) O127:H6 E2348/69) (UniProt B7UMA6)
[4] = biological target: B2; assay: cryo-EM structure; conditions: both partners purified
cryo-EM structure = biological target: the molecule itself; assay: cryo-EM structure

Q: With `Nc1ncnc2c1ncn2[C@@H]1O[C@H](COP(=O)(O)OP(=O)(O)O)[C@@H](O)[C@H]1O` [ADP] as the molecule, how does the “cryo-EM structure, 3.29 Å” value [1] read?
A: Sample density of the class two catalytic site ligands ADP, AlF3 (grey and cyan)

Q: Which “EnzChek phosphate release ATPase assay” value [2] does the source give for `Nc1ncnc2c1ncn2[C@@H]1O[C@H](COP(=O)(O)OP(=O)(O)OP(=O)(O)O)[C@@H](O)[C@H]1O` [ATP] here?
A: found to further enhance EscN oligomerization and ATPase activity

Q: With “EscO^1–125 Lys110Glu/Lys114Glu (natural protein)” as the molecule, how does the decrease in catalytic rate of EscN ATPase (EnzChek) with the EscO mutant against wild-type EscO [3] read?
A: 50%

Q: How did the “stoichiometry N” value [4] turn out when B1 was run?
A: 1 EscO per EscN hexamer

Q: How did the “stoichiometry N” value (cryo-EM structure) turn out when B2 was run?
A: 6
